“And” between values parts separate entries of the source, which are not always exact repeats. Identical values can stand only once. Like-named read-outs stand apart in the source and are kept apart here.
What was measured:
[1] = biological target: She2p (Saccharomyces cerevisiae, UniProt P36068 1-246); test: SLS
[2] = biological target: T1, She2p;She3p;Myo4p full-length (Saccharomyces cerevisiae;Saccharomyces …, UniProt P36068;P38272;P32492 1-246;1-425;1-1471, ||); test: single-molecule TIRFM
[3] = biological target: the molecule itself; test: cross-linking
[4] = biological target: T1, She2p;She3p;Myo4p full-length; test: single-molecule TIRFM; remark: listed apart in the source
[5] = biological target: T2, Myo4p-C (amino acids 978–1,471) (S. cerevisiae, UniProt P32492 978-1471); test: quantitative mass spectrometry with heavy isotope-labeled peptides
T2 sequence: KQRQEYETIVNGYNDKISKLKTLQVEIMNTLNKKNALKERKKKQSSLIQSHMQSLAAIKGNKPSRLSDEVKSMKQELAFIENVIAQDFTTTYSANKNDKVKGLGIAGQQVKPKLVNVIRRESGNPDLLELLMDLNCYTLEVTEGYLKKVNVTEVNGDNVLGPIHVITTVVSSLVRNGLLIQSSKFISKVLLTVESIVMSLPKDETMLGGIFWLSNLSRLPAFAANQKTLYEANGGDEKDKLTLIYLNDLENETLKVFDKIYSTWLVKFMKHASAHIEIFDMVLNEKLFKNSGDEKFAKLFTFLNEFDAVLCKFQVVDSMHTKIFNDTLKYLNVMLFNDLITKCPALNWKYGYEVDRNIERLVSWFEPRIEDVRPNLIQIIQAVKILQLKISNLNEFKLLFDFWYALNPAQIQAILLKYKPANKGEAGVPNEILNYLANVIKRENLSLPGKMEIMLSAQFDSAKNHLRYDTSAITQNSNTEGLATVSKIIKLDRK

[6] = biological target: T2, Myo4p-C (amino acids 978–1,471); test: ITC
[7] = biological target: T2, Myo4p-C (amino acids 978–1,471); test: static light scattering coupled to SEC
[8] = biological target: T2, Myo4p-C (amino acids 978–1,471); test: quantitative mass spectrometry with heavy isotope-labeled peptides; remark: listed apart in the source
[9] = biological target: T3, She3p;Myo4p-C (Saccharomyces cerevisiae;Saccharomyces …, UniProt P38272;P32492 1-425;978-1471, |); test: EMSA
T3 sequence 1: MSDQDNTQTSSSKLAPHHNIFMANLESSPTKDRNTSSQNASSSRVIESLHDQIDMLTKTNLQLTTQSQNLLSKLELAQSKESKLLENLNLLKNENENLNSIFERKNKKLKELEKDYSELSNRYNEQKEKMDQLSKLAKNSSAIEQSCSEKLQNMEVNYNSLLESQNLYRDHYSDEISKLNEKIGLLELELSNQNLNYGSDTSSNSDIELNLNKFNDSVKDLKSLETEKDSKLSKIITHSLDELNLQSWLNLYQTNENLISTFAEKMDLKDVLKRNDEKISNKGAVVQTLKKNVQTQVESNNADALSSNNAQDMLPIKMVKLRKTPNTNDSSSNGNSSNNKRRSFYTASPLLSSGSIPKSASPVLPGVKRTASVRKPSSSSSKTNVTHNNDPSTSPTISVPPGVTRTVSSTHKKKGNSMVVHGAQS
T3 sequence 2: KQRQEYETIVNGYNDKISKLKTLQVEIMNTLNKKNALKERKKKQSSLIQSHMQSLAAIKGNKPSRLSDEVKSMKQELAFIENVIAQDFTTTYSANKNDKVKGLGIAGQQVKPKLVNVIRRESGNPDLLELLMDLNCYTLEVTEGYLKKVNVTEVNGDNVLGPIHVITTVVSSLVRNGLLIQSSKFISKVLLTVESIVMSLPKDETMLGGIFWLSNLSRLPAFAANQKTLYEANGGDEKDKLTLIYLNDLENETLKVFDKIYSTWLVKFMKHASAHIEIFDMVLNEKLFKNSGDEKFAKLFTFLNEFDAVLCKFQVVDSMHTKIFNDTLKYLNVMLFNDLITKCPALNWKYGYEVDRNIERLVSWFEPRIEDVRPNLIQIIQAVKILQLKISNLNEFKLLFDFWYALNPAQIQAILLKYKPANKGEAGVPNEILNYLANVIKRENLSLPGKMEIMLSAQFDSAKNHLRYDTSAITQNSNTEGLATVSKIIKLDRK

[10] = biological target: T4, She2p;She3p;Myo4p-C (Saccharomyces cerevisiae;Saccharomyces …, UniProt P36068;P38272;P32492 1-246;1-425;978-1471, ||); test: EMSA
[11] = biological target: T4, She2p;She3p;Myo4p-C; test: SLS
[12] = biological target: T4, She2p;She3p;Myo4p-C; test: SEC

She2p, sequence (P36068 whole entry): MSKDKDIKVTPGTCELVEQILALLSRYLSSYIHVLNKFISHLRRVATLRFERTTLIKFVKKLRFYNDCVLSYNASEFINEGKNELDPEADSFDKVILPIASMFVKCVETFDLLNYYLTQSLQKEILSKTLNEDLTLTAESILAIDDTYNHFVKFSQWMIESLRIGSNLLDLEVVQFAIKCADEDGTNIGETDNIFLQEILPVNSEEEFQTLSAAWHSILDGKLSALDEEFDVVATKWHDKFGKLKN
T4 sequence (P36068 whole entry, one chain of several): as the sequence (P36068 whole entry) above
T1 sequence (P36068 whole entry, one chain of several): as the sequence (P36068 whole entry) above

B1: IST2-tRNA (structured_RNA)
RNA: GGCUACGUAGCUCAGUUGGUUAGAGCAGCGGCCGGAUGCUGGAGUGAAGAAUGUCACGAACAAUUCUAAGACAACCGAAUCCUCUUCCUCUUCAUCUGGCCGCGGGUCACAGGUUCGAAUCCCGUCGUAGCCACCA
- binding result [1]: binds

B2: ASH1-E3-77 + 3' overhang (mixed)
RNA: GGGAGAGAAUUGAUACAUGGAUAACUGAAUCUCUUUCAACUAAUAAGAGACAUUAUCACGAAACAAUUGUACAUUUCUCUCCUUGUCUGUGCUAAAUAAACUAC
DNA: GTAGTTTATTTAGCACAGACAAGG
- binding result [2]: binds

B3: She3p N-terminal fragment (amino acids 1–234) (domain or fragment)
chain: MSDQDNTQTSSSKLAPHHNIFMANLESSPTKDRNTSSQNASSSRVIESLHDQIDMLTKTNLQLTTQSQNLLSKLELAQSKESKLLENLNLLKNENENLNSIFERKNKKLKELEKDYSELSNRYNEQKEKMDQLSKLAKNSSAIEQSCSEKLQNMEVNYNSLLESQNLYRDHYSDEISKLNEKIGLLELELSNQNLNYGSDTSSNSDIELNLNKFNDSVKDLKSLETEKDSKLSK
- binding result [3]: binds

B4: IST2 + 22-nt 3' overhang (mixed)
RNA: GGGAUGCUGGAGUGAAGAAUGUCACGAACAAUUCUAAGACAACCGAAUCCUCUUCCUCUUCAUCGGCGGCAAAGGAAAAACCAAAA
DNA: TTTTGGTTTTTCCTTTGCCGCC
- binding result [4]: binds

B5: She3p, full-length (natural protein)
chain: MSDQDNTQTSSSKLAPHHNIFMANLESSPTKDRNTSSQNASSSRVIESLHDQIDMLTKTNLQLTTQSQNLLSKLELAQSKESKLLENLNLLKNENENLNSIFERKNKKLKELEKDYSELSNRYNEQKEKMDQLSKLAKNSSAIEQSCSEKLQNMEVNYNSLLESQNLYRDHYSDEISKLNEKIGLLELELSNQNLNYGSDTSSNSDIELNLNKFNDSVKDLKSLETEKDSKLSKIITHSLDELNLQSWLNLYQTNENLISTFAEKMDLKDVLKRNDEKISNKGAVVQTLKKNVQTQVESNNADALSSNNAQDMLPIKMVKLRKTPNTNDSSSNGNSSNNKRRSFYTASPLLSSGSIPKSASPVLPGVKRTASVRKPSSSSSKTNVTHNNDPSTSPTISVPPGVTRTVSSTHKKKGNSMVVHGAQS
- stoichiometry N [5]: 2.56 She3p:Myo4p-C
- stoichiometry N [3]: 2
- stoichiometry N [6]: 1.93 She3p:Myo4p
- stoichiometry N [7]: 2 She3p/Myo4p-C
- stoichiometry N [8]: 2.12 She3p:Myo4p-C and 2.23 She3p:Myo4p-C

B6: ASH1-E3-77 (structured_RNA)
RNA: GGGAGAGAAUUGAUACAUGGAUAACUGAAUCUCUUUCAACUAAUAAGAGACAUUAUCACGAAACAAUUGUACAUUUCUCU
- binding result [9]: binds
- binding result [10]: binds

B7: ASH1-E3-77-tRNA (structured_RNA)
RNA: GGCUACGUAGCUCAGUUGGUUAGAGCAGCGGCCGAGAGAAUUGAUACAUGGAUAACUGAAUCUCUUUCAACUAAUAAGAGACAUUAUCACGAAACAAUUGUACAUUUCUCUUGGCCGCGGGUCACAGGUUCGAAUCCCGUCGUAGCCACCA
- binding result [11]: binds
- binding result [1]: binds

B8: ASH1-E3-51 (structured_RNA)
RNA: AUGGAUAACUGAAUCUCUUUCAACUAAUAAGAGACAUUAUCACGAAACAAU
- binding result [12]: binds
- binding result [1]: binds

Reference: publication PMC3871432 (The Journal of Cell Biology, 2013)
